The target of experiment [1] is MACV MBP-Z fusion protein (full-length wild-type MACV Z protein) (Machupo virus) (UniProt Q6IUF9). The experiment in a line: […] (20 mM Tris-HCl pH 8.0, 500 mM NaCl, 2 mM DTT), […].
For experiment [2], the target named is Machupo virus (MACV) L protein (Machupo virus, UniProt Q6IUF8 1-2209). The description is as above. The note with it: both partners purified.
Sequence of Machupo virus (MACV) L protein (Q6IUF8 whole entry): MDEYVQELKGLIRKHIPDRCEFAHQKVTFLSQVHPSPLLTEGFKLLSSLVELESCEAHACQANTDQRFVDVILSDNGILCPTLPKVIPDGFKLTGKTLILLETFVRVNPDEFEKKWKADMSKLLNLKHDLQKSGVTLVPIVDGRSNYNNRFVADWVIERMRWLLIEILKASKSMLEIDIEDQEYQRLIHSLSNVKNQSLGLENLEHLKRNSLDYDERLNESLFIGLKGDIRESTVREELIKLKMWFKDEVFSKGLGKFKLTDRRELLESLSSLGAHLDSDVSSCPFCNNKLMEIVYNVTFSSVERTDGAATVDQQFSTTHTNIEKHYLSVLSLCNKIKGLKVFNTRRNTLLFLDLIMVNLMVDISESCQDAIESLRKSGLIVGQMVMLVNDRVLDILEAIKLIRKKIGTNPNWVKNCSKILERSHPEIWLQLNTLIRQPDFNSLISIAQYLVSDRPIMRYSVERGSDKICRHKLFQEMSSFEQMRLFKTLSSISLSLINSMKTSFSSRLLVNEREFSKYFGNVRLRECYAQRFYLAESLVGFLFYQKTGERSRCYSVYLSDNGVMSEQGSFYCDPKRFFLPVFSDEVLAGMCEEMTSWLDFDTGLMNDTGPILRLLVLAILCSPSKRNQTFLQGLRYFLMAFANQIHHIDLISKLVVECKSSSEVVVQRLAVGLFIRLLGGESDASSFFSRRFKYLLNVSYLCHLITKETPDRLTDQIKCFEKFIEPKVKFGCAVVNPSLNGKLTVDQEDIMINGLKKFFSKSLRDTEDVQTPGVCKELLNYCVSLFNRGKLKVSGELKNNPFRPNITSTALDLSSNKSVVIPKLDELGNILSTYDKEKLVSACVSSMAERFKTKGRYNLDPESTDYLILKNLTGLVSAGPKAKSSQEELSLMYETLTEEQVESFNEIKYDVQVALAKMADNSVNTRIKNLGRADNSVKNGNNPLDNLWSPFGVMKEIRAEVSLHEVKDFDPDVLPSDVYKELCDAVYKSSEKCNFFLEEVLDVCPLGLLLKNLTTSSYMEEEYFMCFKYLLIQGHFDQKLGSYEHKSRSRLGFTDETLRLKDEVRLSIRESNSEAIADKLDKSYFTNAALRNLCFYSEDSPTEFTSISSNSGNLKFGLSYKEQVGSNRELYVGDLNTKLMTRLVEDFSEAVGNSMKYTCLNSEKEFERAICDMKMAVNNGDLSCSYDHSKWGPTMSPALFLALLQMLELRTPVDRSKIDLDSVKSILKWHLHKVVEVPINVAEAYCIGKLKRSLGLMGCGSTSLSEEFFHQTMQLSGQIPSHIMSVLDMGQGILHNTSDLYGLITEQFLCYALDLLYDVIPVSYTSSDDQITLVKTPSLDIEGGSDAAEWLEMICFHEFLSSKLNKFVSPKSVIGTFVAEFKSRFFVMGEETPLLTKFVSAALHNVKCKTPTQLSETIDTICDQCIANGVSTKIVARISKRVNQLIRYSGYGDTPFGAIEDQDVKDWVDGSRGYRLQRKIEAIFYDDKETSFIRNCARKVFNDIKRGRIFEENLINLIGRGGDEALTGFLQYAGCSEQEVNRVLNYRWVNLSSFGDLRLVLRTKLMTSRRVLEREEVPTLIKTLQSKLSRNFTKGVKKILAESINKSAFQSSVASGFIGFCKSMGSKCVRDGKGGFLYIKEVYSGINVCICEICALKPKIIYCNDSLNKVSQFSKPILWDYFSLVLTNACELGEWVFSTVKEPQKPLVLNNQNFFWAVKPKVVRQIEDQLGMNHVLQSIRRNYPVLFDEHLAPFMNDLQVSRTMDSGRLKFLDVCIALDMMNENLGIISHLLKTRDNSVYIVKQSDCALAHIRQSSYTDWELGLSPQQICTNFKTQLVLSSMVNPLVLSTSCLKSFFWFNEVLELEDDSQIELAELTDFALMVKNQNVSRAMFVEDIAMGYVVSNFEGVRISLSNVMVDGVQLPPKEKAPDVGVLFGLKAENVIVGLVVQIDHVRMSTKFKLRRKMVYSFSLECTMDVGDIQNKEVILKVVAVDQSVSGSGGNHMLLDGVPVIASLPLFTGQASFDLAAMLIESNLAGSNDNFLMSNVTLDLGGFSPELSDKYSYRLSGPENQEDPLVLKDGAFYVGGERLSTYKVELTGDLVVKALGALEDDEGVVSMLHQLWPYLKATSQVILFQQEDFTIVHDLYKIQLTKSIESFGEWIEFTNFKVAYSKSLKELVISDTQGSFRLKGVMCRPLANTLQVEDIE

For orientation: stoichiometry N means the number of molecules, sites or subunits per partner or assembly. As for “Machupo virus (MACV) L protein, Q6IUF8 1-2209”, the stoichiometry N in experiment [1] was 1 Z:L.

B1: MACV MBP-Z fusion protein (full-length wild-type MACV Z protein) (natural protein)
chain: MGNCNKPPKRPPNTQTSAAQPSAEFRRTALPSLYGRYNCKCCWFADTNLITCNDHYLCLRCHQTMLRNSELCHICWKPLPTSITVPVEPSAPPP
On to B1, for which the binding result in experiment [2] is “binds”.

Values taken from PMC8546121 (Nature Communications, 2021).
